Data reported in paper PMC9482650, “Quantitative fragmentomics allow affinity mapping of interactomes” (Nature Communications, 2022).

T1: MPP2, Q14168
T1 sequence (Q14168 180-250, limits assumed, looked up): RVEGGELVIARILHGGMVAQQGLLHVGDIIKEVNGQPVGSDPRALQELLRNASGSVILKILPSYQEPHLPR

T2: DLG3_2, Q92796
T2 sequence (Q92796 221-321, limits assumed, looked up): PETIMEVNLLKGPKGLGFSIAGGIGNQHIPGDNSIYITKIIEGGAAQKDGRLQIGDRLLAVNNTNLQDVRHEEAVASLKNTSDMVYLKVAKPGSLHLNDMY

T3: CARD11, Q9BXL7
T3 sequence (Q9BXL7 662-765, limits assumed, looked up): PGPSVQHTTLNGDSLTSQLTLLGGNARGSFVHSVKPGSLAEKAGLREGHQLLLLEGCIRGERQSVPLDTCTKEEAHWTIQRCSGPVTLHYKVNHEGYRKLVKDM

T4: PDZD7_3, Q9H5P4
T4 sequence (Q9H5P4 857-944, limits assumed, looked up): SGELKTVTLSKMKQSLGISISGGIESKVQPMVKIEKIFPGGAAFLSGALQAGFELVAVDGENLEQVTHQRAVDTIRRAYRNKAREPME

T5: TJP3_3, O95049
T5 sequence (O95049 375-456, limits assumed, looked up): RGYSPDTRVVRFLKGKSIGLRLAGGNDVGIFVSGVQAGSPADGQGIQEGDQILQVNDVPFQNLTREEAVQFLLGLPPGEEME

T6: LNX2_2, Q8N448
T6 sequence (Q8N448 334-432, limits assumed, looked up): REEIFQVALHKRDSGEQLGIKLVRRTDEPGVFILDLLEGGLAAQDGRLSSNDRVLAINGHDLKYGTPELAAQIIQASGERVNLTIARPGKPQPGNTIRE

T7: SHANK1, Q9Y566
T7 sequence (Q9Y566 658-767, limits assumed, looked up): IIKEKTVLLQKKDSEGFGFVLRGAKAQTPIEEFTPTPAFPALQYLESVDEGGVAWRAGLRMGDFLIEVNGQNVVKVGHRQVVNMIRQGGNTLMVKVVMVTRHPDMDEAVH

T8: DFNB31_2, Q9P202
T8 sequence (Q9P202 274-371, limits assumed, looked up): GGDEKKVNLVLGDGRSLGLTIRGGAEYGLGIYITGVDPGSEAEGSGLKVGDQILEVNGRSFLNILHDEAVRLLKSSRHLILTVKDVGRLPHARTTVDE

T9: APBA2_2, Q99767
T9 sequence (Q99767 654-744, limits assumed, looked up): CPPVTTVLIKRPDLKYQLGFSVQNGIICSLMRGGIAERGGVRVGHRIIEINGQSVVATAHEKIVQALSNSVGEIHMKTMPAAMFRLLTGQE

T10: MPDZ_12, O75970
T10 sequence (O75970 1857-1958, limits assumed, looked up): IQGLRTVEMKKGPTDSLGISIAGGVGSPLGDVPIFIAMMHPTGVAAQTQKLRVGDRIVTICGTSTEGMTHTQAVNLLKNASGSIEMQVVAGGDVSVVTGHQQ

T11: DLG3_3, Q92796
T11 sequence (Q92796 374-475, limits assumed, looked up): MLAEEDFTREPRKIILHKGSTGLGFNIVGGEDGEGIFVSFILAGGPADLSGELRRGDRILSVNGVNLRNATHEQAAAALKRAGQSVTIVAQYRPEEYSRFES

B1: TRAF2, Q12933 (peptide)
chain: IKAIVDLTGL
B2: AQP6, Q13520 (peptide)
chain: GSGAVEMESV
B3: HCN2, Q9UL51 (peptide)
chain: SARSRLSSNL

How the values were obtained:
Assay in all cases: holdup assay
Parameters in all cases: key: below the threshold = too weak to quantify, mostly under pKd 3.1 to 4
Conditions in all cases: plain residues with an end cap or a label only (N-terminal biotin on a linker: ado-ado)
FRMPD2_3, Q68DX3 = molecular target: FRMPD2_3, Q68DX3
GRIP2_4, Q9C0E4 = molecular target: GRIP2_4, Q9C0E4
MPP2, Q14168 = molecular target: T1, MPP2, Q14168
TJP1_3, Q07157 = molecular target: TJP1_3, Q07157
DLG3_2, Q92796 = molecular target: T2, DLG3_2, Q92796
GRIP2_5, Q9C0E4 = molecular target: GRIP2_5, Q9C0E4
GRIP2_6, Q9C0E4 = molecular target: GRIP2_6, Q9C0E4
LIMK2, P53671 = molecular target: LIMK2, P53671
CARD11, Q9BXL7 = molecular target: T3, CARD11, Q9BXL7
MAGI3_2, Q5TCQ9 = molecular target: MAGI3_2, Q5TCQ9
CASK, O14936 = molecular target: CASK, O14936
MAGI2_6, Q86UL8 = molecular target: MAGI2_6, Q86UL8
DLG4_1, P78352 = molecular target: DLG4_1, P78352
IL16_3, Q14005 = molecular target: IL16_3, Q14005
PDZD7_3, Q9H5P4 = molecular target: T4, PDZD7_3, Q9H5P4
TJP3_3, O95049 = molecular target: T5, TJP3_3, O95049
Inadl_1, Q8NI35 = molecular target: Inadl_1, Q8NI35
LNX2_2, Q8N448 = molecular target: T6, LNX2_2, Q8N448
MAGI2_4, Q86UL8 = molecular target: MAGI2_4, Q86UL8
SHANK1, Q9Y566 = molecular target: T7, SHANK1, Q9Y566
DFNB31_2, Q9P202 = molecular target: T8, DFNB31_2, Q9P202
APBA2_2, Q99767 = molecular target: T9, APBA2_2, Q99767
MPDZ_12, O75970 = molecular target: T10, MPDZ_12, O75970
Inadl_8, Q8NI35 = molecular target: Inadl_8, Q8NI35
GRIP2_3, Q9C0E4 = molecular target: GRIP2_3, Q9C0E4
PTPN3, P26045 = molecular target: PTPN3, P26045
LDB3, O75112 = molecular target: LDB3, O75112
DLG3_3, Q92796 = molecular target: T11, DLG3_3, Q92796

Sequence of IL16_3, Q14005 (Q14005 1107-1207): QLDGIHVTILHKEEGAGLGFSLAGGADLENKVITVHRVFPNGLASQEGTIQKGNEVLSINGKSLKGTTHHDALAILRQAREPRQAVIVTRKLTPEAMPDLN
Sequence of LDB3, O75112 (O75112 1-94): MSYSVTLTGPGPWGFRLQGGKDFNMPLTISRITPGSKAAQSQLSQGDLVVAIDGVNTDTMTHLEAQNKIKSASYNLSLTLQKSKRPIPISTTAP
Sequence of MAGI2_6, Q86UL8 (Q86UL8 1141-1229): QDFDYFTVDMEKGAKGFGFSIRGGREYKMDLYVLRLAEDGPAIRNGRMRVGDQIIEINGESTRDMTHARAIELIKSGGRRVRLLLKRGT
Sequence of MAGI2_4, Q86UL8 (Q86UL8 772-865): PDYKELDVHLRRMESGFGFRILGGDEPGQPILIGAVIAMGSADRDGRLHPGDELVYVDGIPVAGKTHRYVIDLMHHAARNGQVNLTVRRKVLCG
Sequence of Inadl_1, Q8NI35 (Q8NI35 113-229): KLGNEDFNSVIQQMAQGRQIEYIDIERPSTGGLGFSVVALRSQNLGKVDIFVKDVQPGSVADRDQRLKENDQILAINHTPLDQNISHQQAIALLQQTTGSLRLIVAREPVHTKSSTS
Sequence of GRIP2_3, Q9C0E4 (Q9C0E4 238-339): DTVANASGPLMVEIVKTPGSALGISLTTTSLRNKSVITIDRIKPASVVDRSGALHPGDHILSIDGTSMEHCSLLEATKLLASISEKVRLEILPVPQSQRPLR
Sequence of FRMPD2_3, Q68DX3 (Q68DX3 1073-1166): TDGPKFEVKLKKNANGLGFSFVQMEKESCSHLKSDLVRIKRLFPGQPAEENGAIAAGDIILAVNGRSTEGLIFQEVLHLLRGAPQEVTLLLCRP
Sequence of DLG4_1, P78352 (P78352 62-152): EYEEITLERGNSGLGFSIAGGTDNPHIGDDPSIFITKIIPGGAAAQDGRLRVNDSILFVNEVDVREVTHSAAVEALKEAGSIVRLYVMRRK
Sequence of PTPN3, P26045 (P26045 505-587): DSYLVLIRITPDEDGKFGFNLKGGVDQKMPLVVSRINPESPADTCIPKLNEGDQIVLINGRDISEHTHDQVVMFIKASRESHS
Sequence of CASK, O14936 (O14936 487-570): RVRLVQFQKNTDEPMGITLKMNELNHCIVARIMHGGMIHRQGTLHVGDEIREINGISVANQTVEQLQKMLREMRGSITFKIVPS
Sequence of Inadl_8, Q8NI35 (Q8NI35 1425-1530): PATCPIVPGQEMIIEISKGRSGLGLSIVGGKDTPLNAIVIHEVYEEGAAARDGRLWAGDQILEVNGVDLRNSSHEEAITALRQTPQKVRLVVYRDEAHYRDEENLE
Sequence of GRIP2_6, Q9C0E4 (Q9C0E4 648-740): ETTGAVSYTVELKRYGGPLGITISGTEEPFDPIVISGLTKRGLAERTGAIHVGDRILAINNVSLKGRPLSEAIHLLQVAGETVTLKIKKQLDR
Sequence of TJP1_3, Q07157 (Q07157 416-512): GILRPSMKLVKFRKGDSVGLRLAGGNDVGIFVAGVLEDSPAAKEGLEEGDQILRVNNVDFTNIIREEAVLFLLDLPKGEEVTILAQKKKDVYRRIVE
Sequence of LIMK2, P53671 (P53671 143-248): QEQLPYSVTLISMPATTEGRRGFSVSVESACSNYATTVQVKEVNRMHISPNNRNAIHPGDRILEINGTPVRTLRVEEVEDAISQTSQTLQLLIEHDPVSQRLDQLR
Sequence of GRIP2_4, Q9C0E4 (Q9C0E4 446-548): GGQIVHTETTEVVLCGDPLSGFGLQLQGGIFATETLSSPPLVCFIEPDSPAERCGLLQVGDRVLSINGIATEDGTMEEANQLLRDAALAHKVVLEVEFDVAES
Sequence of MAGI3_2, Q5TCQ9 (Q5TCQ9 398-503): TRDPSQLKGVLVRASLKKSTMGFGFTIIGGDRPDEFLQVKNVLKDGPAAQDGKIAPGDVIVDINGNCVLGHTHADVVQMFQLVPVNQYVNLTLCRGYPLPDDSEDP
Sequence of GRIP2_5, Q9C0E4 (Q9C0E4 544-642): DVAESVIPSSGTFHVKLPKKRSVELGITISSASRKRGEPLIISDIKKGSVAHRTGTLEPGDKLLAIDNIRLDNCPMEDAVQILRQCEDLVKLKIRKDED

| Binder | pKd (FRMPD2_3, Q68DX3) | pKd (GRIP2_4, Q9C0E4) | pKd (MPP2, Q14168) | pKd (TJP1_3, Q07157) | pKd (DLG3_2, Q92796) | pKd (GRIP2_5, Q9C0E4) | pKd (GRIP2_6, Q9C0E4) | pKd (LIMK2, P53671) | pKd (CARD11, Q9BXL7) | pKd (MAGI3_2, Q5TCQ9) | pKd (CASK, O14936) | pKd (MAGI2_6, Q86UL8) | pKd (DLG4_1, P78352) | pKd (IL16_3, Q14005) | pKd (PDZD7_3, Q9H5P4) | pKd (TJP3_3, O95049) | pKd (Inadl_1, Q8NI35) | pKd (LNX2_2, Q8N448) | pKd (MAGI2_4, Q86UL8) | pKd (SHANK1, Q9Y566) | other results |
| --- | --- | --- | --- | --- | --- | --- | --- | --- | --- | --- | --- | --- | --- | --- | --- | --- | --- | --- | --- | --- | --- |
| B1 | below the threshold | below the threshold | below the threshold | below the threshold | below the threshold | below the threshold | below the threshold | below the threshold | below the threshold | below the threshold | below the threshold | below the threshold | below the threshold | below the threshold | below the threshold | below the threshold | below the threshold | below the threshold | below the threshold | 3.49 | pKd (DFNB31_2, Q9P202): below the threshold; pKd (APBA2_2, Q99767): below the threshold; pKd (MPDZ_12, O75970): below the threshold; pKd (Inadl_8, Q8NI35): below the threshold; pKd (GRIP2_3, Q9C0E4): below the threshold; pKd (PTPN3, P26045): 3.91; pKd (LDB3, O75112): below the threshold; pKd (DLG3_3, Q92796): below the threshold |
| B2 | below the threshold | below the threshold | below the threshold | below the threshold | below the threshold | below the threshold | below the threshold | below the threshold | below the threshold | below the threshold | below the threshold | 3.51 | below the threshold | below the threshold | below the threshold | below the threshold | below the threshold | 3.49 | below the threshold | below the threshold | pKd (DFNB31_2, Q9P202): below the threshold; pKd (APBA2_2, Q99767): below the threshold; pKd (MPDZ_12, O75970): below the threshold; pKd (Inadl_8, Q8NI35): below the threshold; pKd (GRIP2_3, Q9C0E4): below the threshold; pKd (PTPN3, P26045): below the threshold; pKd (LDB3, O75112): below the threshold; pKd (DLG3_3, Q92796): below the threshold |
| B3 | below the threshold | below the threshold | below the threshold | below the threshold | below the threshold | below the threshold | below the threshold | below the threshold | below the threshold | 4.18 | below the threshold | below the threshold | below the threshold | below the threshold | 4.09 | below the threshold | below the threshold | below the threshold | below the threshold | 4.09 | pKd (DFNB31_2, Q9P202): below the threshold; pKd (APBA2_2, Q99767): below the threshold; pKd (MPDZ_12, O75970): below the threshold; pKd (Inadl_8, Q8NI35): below the threshold; pKd (GRIP2_3, Q9C0E4): below the threshold; pKd (PTPN3, P26045): 4.16; pKd (LDB3, O75112): below the threshold; pKd (DLG3_3, Q92796): below the threshold |
